For test [1], the target named is T1, ATP5A1 (endogenous, HCT116 human colon cancer cells) (human, UniProt P25705 44-553).
T1 construct: Endogenous protein in cell or tumor lysates
As to the kind of experiment: interaction analysis by immunoblot in HCT116 xenograft tumor lysates of treated mice (FIG. 6A, bottom). Background: Immunoblotting shows a protein as a band on a membrane.

The target in test [2] is T2, ATP5C1 (endogenous, HCT116 human colon cancer cells) (human, UniProt P36542 26-298).
T2 construct: Endogenous protein in cell or tumor lysates
T2 sequence: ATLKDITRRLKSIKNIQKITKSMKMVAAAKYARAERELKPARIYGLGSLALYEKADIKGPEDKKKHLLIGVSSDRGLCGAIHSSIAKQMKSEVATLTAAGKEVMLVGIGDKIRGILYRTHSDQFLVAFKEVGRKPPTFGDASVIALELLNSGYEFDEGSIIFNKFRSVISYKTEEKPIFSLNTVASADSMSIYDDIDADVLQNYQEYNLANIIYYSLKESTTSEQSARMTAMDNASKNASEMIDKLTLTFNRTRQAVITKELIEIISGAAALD
The test is described as above.

T1 sequence (P25705 44-553 limits assumed): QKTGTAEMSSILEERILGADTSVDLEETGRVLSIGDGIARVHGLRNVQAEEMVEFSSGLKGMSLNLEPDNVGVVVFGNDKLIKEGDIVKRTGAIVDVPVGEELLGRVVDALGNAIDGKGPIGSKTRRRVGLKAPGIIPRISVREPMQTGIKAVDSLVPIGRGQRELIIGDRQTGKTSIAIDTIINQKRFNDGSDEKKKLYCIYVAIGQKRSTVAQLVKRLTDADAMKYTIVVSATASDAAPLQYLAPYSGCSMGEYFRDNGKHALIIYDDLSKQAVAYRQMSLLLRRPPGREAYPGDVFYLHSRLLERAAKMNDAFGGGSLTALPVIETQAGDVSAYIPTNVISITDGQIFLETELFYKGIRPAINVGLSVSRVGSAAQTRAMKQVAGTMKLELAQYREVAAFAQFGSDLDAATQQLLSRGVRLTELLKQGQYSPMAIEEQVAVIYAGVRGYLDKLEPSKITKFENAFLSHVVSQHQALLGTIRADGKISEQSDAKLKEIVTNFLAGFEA

B1: rATRAM-GRA8-M/AS (6x His-tagged ATRAM-conjugated multifunctional GRA8 peptide) (peptide)
chain: GLAGLAGLLGLEGLLGLPLGLLEGLWLGLELEGNGLAGLAGLLGLEGLLGLPLGLLEGLWLGLELEGNGGATATTTTTTRGGYRFTVQTTQN
notes: also called rATRAM-G8-M/AS; 6x His-rATRAM-GRA8-M/AS; not shown: N-terminal 6x His tag from the pRSFDuet-1 vector
In the case of B1, the binding result in test [1] and in test [2] was “binds” throughout.

These data come from patent publication US20210188916A1 (INDUSTRY UNIVERSITY COOPERATION FOUNDATION HANYANG …, published 2021).
